Results on 27 molecules are retold here after patent publication US7173005 (dated 2007).

In assay [1] the target is T1, human IGF-1 receptor (IGF-1R) (human, UniProt P08069). In words: competition, TR-FRET vs b-20E2.
Assay [2] addresses T1, human IGF-1 receptor (IGF-1R). Put plainly: competition, TR-FRET vs b-20E2. The source holds these as a separate data set.
The target is the same in assay [3]. In words: competition.
For assay [4] the target is unchanged. In words: competition, TRF vs b-rhIGF-1.
Assay [5] addresses human insulin receptor (HIR) (human, UniProt P06213). In words: competition.
For assay [6], the target named is T1, human IGF-1 receptor (IGF-1R). In words: competition, AlphaScreen vs b-hIGF-1.

For PPWGARFYDAIEQLVFDNL [RP4], the IC50 in assay [1] worked out at 8100 nM.

The molecule SAKNFYDWFVKK [A6] returned an IC50 in assay [2] of 31000 nM.

B1: D815-6aa-G33 (protein)
chain: WLDQERAWLWCEISGRGCLSGGSGGSGIISQSCPESFYDWFAGQVSDPWWCW
Turning to B1, the Ki in assay [3] was found to be 624 nM. The molecule also showed an IC50 in assay [4] of 624 nM.

The molecule HDPFYSMMKSLLK [S120] had a Kd in assay [5] of 2000 nM.

FHENFYDWFVQRVSKK [H2C (D117)] showed an IC50 in assay [2] of 460 nM.

In the case of WLDQERAWLWCEISGRGCLS [rD815], the affinity in assay [3], expressed as Ki, was 4080 nM. In assay [4], the IC50 worked out at 4080 nM.

In assay [2], WLEQERAWIWCEIQGSGCRA [S263 / D8B12] had an IC50 of 11300 nM.

On to DYKDFYDAIDQLVRGSARAGGTRD [20E2 (D118)], for which the concentration for half-maximal inhibition (IC50) worked out at 104 nM in assay [2] and 100 nM in assay [1].

Molecule EGSSINLLARAQIVELALEMGVQEE [RP54] registered an IC50 in assay [6] of 1600 nM.

B2: S255 (peptide)
chain 1: SDGFYNAIELLSGGGX
chain 2: SDGFYNAIELLSGGGX
modifications: listing feature
In turn, B2 showed a Kd in assay [5] of 1600 nM.

In assay [3], GSLDESFYDWFERQLG [S386 / RP9 without terminal lysines] displayed a Ki of 417 nM. Moreover, the results for the half-maximal inhibitory concentration (IC50) in assay [4], in assay [2] and in assay [1] were 417 nM, 39.3 nM and 33 nM, respectively.

Consider CWARPCGDAANFYDWFVQQAS [C1 (D112)], for which the concentration for half-maximal inhibition (IC50) came out at 0.88 nM in assay [2] and 10 nM in assay [1].

For CGFHENFYDWFVRQVSKK [S171], in assay [5], binding was characterised by a dissociation constant (Kd) of 2900 nM.

B3: S456 (peptide)
chain 1: XGSLDESFYDWFERQLGKK
chain 2: XKEWLDQEWAWVQCEVYGRGCPSEE
modifications: not fully specified; listing feature
The molecule B3 displayed a Kd in assay [5] of 2.4 nM.

In assay [3], WLDQERAWLWCEISGRGCLSGGSGGSGSLDESFYDWFERQLGKK [D815-6aa-RP9] gave a Ki of 36 nM. This molecule also had an IC50 in assay [4] of 35.7 nM.

TFYSCLASLLTGTPQPNRGPWERCRKK [S327 / RP6KK]: the IC50 in assay [6] was 190 nM.

In turn, ANFYDWFVAELG [S242] returned a Kd in assay [5] of 2000 nM.

B4: S246 (peptide)
chain 1: ACAWPTYWNCGGGGX
chain 2: FHENFYDWFVRQVSKKX
modifications: listing feature
Take B4: the Kd in assay [5] turned out to be 5000 nM.

HPTSKEIYAKLLK [S122] yielded a Kd in assay [5] of 9300 nM.

In the case of SQAGSAFYAWFDQVLRTV [RP15], the IC50 in assay [1] worked out at 706 nM.

In the case of LDALDRLMRYFEERPSL [S173], the IC50 in assay [2] came out at 6290 nM.

Turning to GIISQSCPESFYDWFAGQVSDPWWCW [S326 / G33], the inhibition constant Ki in assay [3] amounted to 1450 nM. Moreover, the IC50 in assay [4] came out at 1450 nM; in assay [1], 178 nM.

In assay [5], SDGFYNAIELLS [S118] displayed a dissociation constant (Kd) of 2400 nM.

For WLDQERAWLWCEISGRGCLSGGSGGSGGSGGSGSLDESFYDWFERQLGKK [D815-12aa-RP9], in assay [3], the Ki was 3 nM. The molecule further displayed an IC50 in assay [4] of 3.22 nM.

For SFYSCLESLVNGPAEKSRGQWDGCRKK [RP33-IGF], the IC50 in assay [6] turned out to be 9 nM.

Take VMDARDDPFYHKLSELVT [RP16]: in assay [1], the IC50 was determined as 961 nM.

AAAAFYDWFAAAAAKK [S168] showed a Kd in assay [5] of 3800 nM.
